Values of other authors in patent US10076577B2, “Compositions and methods for treating endocrine, gastrointestinal or autoimmune disorders” (priority 2010, dated 2018).

Conditions: in vivo

In the case of Glucagon-like peptide-1 [GLP-1], the “half-life in the blood” value is listed as “a few minutes”.
